Measured values published in the supplement of paper PMC11811203.

B1: THAP1; numbered along this chain (parent)
chain: MVQSCSAYGCKNRYDKDKPVSFHKFPLTRPSLCKEWEAAVRRKNFKPTKYSSICSEHFTPDCFKRECNNKLLKENAVPTIFLCTEPHDKKEDLLEPQEQLPPPPLPPPVSQVDAAIGLLMPPLQTPVNLSVFCDHNYTVEDTMHQRKRIHQLEQQVEKLRKKLKTAQQRCRRQERQLEKLKEVVHFQKEKDDVSERGYVILPNDYFEIVEVPA

Variants of: B1
Assay: THAP1 transcriptional activity (GFP+/GFP- enrichment relative to wild-type constructs) (ratio to WT); higher = more THAP1 activity (PSMB5 reporter activation)
Conditions: with PSMB5 promoter-GFP reporter
In short: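 A lentiviral site-saturation library covering residues 2–213 of human THAP1, with each position changed to all 20 amino acids, was transduced in duplicate at MOI ~0.3 into THAP1-knockout HEK-293T cells with mClover3 knocked in at endogenous PSMB5. Five days later, BFP+ cells were sorted into GFP-dim and GFP-bright bins and variants were counted by Illumina sequencing of genomic DNA amplicons. Activity is the bright/dim read fold change averaged over replicates and divided by the mean of wild-type synonymous constructs.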

THAP1 transcriptional activity, by site and new letter:
K188: N 1.03, Y 0.683, I 0.858, G 1.05, M 0.605
P202: D 0.802, L 0.884, F 0.497, E 1.05, R 0.824, C 0.722, T 0.839, G 0.98, I 0.585, Q 0.911, Y 1.04, W 0.577, A 1.15, M 1.1, K 0.636, N 0.854, S 0.869, H 1.12
N203: C 0.834, A 1.28
E195: L 0.714, M 0.781, Y 0.588, F 0.67, P 0.704, W 0.467, N 0.808, S 1.16, C 0.903, T 0.674, R 1.03, H 0.381, A 0.865, K 1.37, D 1.15, G 1.07, V 1.02, I 0.587
F186: K 1.59, S 1.93, W 1.1, L 1.31, H 1.25, Y 1.36, T 1.21, E 1.64, G 1.63, A 1.67, C 2.01, P 1.48, M 1.32, V 1.11, Q 2.25, I 1.08, R 1.31, D 1.4
Y198: N 1.66, L 1.02, Q 1.51, F 0.947, K 0.631, G 0.536, W 0.672, D 0.763, R 0.78, I 1.25, E 1.15, V 1.01, T 1.13, P 0.891, C 0.806, M 1.02
Q187: Y 0.809, S 1.45, E 0.824, N 0.727, V 0.652, H 0.853, A 1.21, T 0.99, R 1.03, G 0.874, W 0.568, C 0.911, I 0.687, D 0.783, P 0.385, K 0.719, L 0.681, F 0.78
R196: A 0.861, Y 1.11, S 1.36, W 0.521, M 0.811, V 1.54, D 0.823, Q 1.73, H 1.21, T 1.47, E 1.34, N 0.869, K 0.966
V199: M 0.728, W 0.95, A 0.703, C 0.947, E 0.701, T 0.697, Q 0.623, R 0.478, K 0.555, N 0.42, H 0.609, G 0.935, L 0.908, Y 0.918
V184: T 1.1, L 0.923, F 0.913, Y 0.826, M 1.22, N 1.19, Q 1.09, H 0.994, P 0.617, E 0.657, D 1.11, K 0.901, W 0.59, G 1.29, A 1.55, C 0.742
I200: M 0.751, L 1.27, E 0.762, Y 0.548, R 0.412, T 0.694, F 0.819, P 0.688, C 0.615, A 0.558, D 0.703, K 0.283, H 0.546, V 1.05, W 0.555, Q 1.09
S194: T 0.865, R 0.998, H 1.2, L 0.808, A 0.876, M 0.847, E 1.11, Q 1.42, V 1.06, W 1.09, P 1.22, G 1.35, C 0.978
